From publication PMC5045412, “Inhibition of pro-HGF activation by SRI31215, a novel approach to block oncogenic HGF/MET signaling” (Oncotarget, 2016)

T1: recombinant human HGFA (Homo sapiens, UniProt Q04756)
T1 construct: purchased R&D Systems
T1 sequence (Q04756 408-655 limits assumed): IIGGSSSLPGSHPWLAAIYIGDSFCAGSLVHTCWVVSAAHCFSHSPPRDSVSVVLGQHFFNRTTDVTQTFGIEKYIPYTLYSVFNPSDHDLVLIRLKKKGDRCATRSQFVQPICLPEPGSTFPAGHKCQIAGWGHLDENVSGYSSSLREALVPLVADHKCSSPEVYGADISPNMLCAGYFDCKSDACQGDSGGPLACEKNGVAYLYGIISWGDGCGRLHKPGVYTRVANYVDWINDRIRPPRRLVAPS
T1 sequence (Q04756 373-407 partner limits assumed): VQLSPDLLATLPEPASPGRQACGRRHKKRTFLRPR

B1: HAI-1: recombinant human HAI-1, endogenous inhibitor of HGF activation, positive control (protein, UniProt O43278 36-529, looked up)
Kunitz-type protease …: GPPPAPPGLPAGADCLNSFTAGVPGFVLDTNASVSNGATFLESPTVRRGWDCVRACCTTQNCNLALVELQPDRGEDAIAACFLINCLYEQNFVCKFAPREGFINYLTREVYRSYRQLRTQGFGGSGIPKAWAGIDLKVQPQEPLVLKDVENTDWRLLRGDTDVRVERKDPNQVELWGLKEGTYLFQLTVTSSDHPEDTANVTVTVLSTKQTEDYCLASNKVGRCRGSFPRWYYDPTEQICKSFVYGGCLGNKNNYLREEECILACRGVQGGPLRGSSGAQATFPQGPSMERRHPVCSGTCQPTQFRCSNGCCIDSFLECDDTPNCPDASDEAACEKYTSGFDELQRIHFPSDKGHCVDLPDTGLCKESIPRWYYNPFSEHCARFTYGGCYGNKNNFEEEQQCLESCRGISKKDVFGLRREIPIPSTGSVEMAVAVFLVICIVVVVAILGYCFFKNQRKDFHGHHHHPPPTPASSTVSTTEDTEHLVYNHTTRPL

Key:
[1] = tested on: DiFi cells; experiment: DiFi cells co-cultured with WI38 fibroblasts, immunoblotting; type: cell-based; conditions: gefitinib 0.5 μM
Description: Figure 7 Fibroblasts protect DiFi cells from EGFRi in an HGF-dependent manner DiFi cells were treated with gefitinib (0.5 μM) alone or were co-cultured with WI38 fibroblasts (FIB) in the absence or the presence of SRI 31215 (10 μM) or JNJ38877605 (1 μM). The DiFi cell lysates were isolated after 4 or 24 hours as indicated and examined for the expression of pERK and total ERK, pEGFR and total EGFR, cleaved PARP, β-catenin gelsolin and β-actin by immunoblotting.
Immunoblotting was performed using standard procedures. Membranes were blocked with 5% non-fat milk for 1 hour at RT, and incubated with primary antibodies overnight at 4°C. Primary antibodies used were anti-HGF (R&D Systems), anti-MET, anti-p-MET, anti-p-GAB1, anti-p-AKT, anti-p-ERK1/2, anti-vimentin (Cell Signaling Technology), anti-p-STAT3 (Upstate Cell Signaling Solutions), anti-E-cadherin (BD Transduction Laboratories), anti-β-actin (Sigma). Following washing with TBS-T buffer, membranes were incubated with horseradish peroxidase-conjugated secondary antibodies for 1 hour and then washed with TBS-T. Immunoblots were developed using the chemiluminescent detection system with ECL (Amersham). Protein loading was normalized by probing blots for the expression of β-actin.

[2] = target: T1, recombinant human HGFA; experiment: Proteolytic activation of pro-HGF by HGFA (immunoblotting); type: biochemical; conditions: SRI 31215 10 μM, HAI-1 20 nM, HGFA 1 nM
Description: Recombinant human HAI-1, recombinant human HGFA, and recombinant human HGF propeptide (pro-HGF) were purchased from R&D Systems. SRI 31215 (10 μM) or recombinant human HAI-1 (20 nM) were mixed with activated recombinant human HGFA pro-peptide (1nM) in TNC buffer (pH 8.0) and incubated at room temperature for 30 minutes. Recombinant human pro-HGF (40 ng) was added and incubated at 37°C for 1 hour. The reaction was stopped by SDS-PAGE gel sample buffer and samples were boiled and separated by 12% PAGE. Proteins were transferred onto nitrocellulose membrane, blocked with 5% milk and immunoblotted using antibodies that recognize pro-HGF as well as α and β chains of activated HGF.

[3] = tested on: RKO cells; experiment: Clonogenic growth and viability of HGF-producing RKO cells with EGFR inhibitors; type: cell-based; conditions: RKO cells, SRI 31215 10 μM, JNJ 38877605 1 μM, HAI-1 20 nM
Description: Figure 5 Inhibitors of HGF/MET signaling prevent the innate and acquired resistance to cetuximab A. and B. RKO cells were treated with cetuximab (50 μg/ml) (A) of gefitinib (B) alone, or in combination with SRI 31215 (10 μM), JNJ 38877605 (1 μM) or recombinant HAI-1 (20 nM) as indicated and clonogenic growth was monitored as described in Materials and Methods. C. and D. Caco2 cells were treated with cetuximab or gefitinib alone or in the presence of CM from fibroblasts and SRI 31215 (10 μM) or JNJ 38877605 (1 μM) as indicated. #: p<0.05, compared to control (CTRL); NS: not significant.
Cell titer-glo luminescent cell viability assay kit was purchased from Promega. […] For clonogenic assay, cells were seeded in 6-well plates at a density of 400 cells per well, serum starved overnight, and treated as indicated. After colony formation (8-12 days), cells were stained with crystal violet and the number of colonies was determined using ImageQuantTL (GE Health Care Life Sciences).
Supplementary Figure S3: Inhibition of HGF/MET signaling sensitizes HGF-producing RKO colon cancer cells to gefitinib. A. RKO cells (HGF+) and B. HT29 (HGF-) cells were treated with gefitinib (5 μM) in the absence or the presence of SRI 31215 (10 μM) or JNJ 38877605 (1 μM) as indicated and viability was determined 24 and 72 hours after treatment. # indicates statistical significance compared to samples treated with gefitinib alone as determined by Students’ t-test (p<0.05).
(also on this page, place not known: www.impactjournals.com/oncotarget/ Oncotarget, Materials 2016 Supplementary (HGF +) (HGF -)) […]

Molecule | levels of β-catenin [1] | HGFA-induced cleavage of pro-HGF into alpha and beta chains [2] | clonogenic growth, agent alone [3] | clonogenic growth, combination with cetuximab ([3]; cetuximab 50 μg/ml)
COc1cc2ncnc(Nc3ccc(F)c(Cl)c3)c2cc1OCCCN1CCOCC1 [Gefitinib] | reduced |  |  | 
B1 |  | inhibited | did not impact | significant decrease
